Test results as given in publication PMC8993888.

Tests used:
[1] = target: Ag43b α-domain (α^43b) from UPEC CFT073 (E. coli CFT073 (UPEC)); assay: AUC; sedimentation velocity; α^43b sample concentrated above 30 mg/ml prior to AUC analysis (Supplementary Fig. 7); monomer to dimer
[2] = target: Ag43^EDL933 α-domain (α^43_EDL933), complete passenger domain with the autochaperone domain, from EHEC O157:H7 EDL933 (E. coli O157:H7 EDL933 (EHEC)); assay: AUC; sedimentation velocity, 2.2 mg/mL, 25 mM HEPES, 150 mM NaCl, pH 7.0, 20 °C, 40,000 rpm, absorbance at 285 nm, c(s) analysis; monomer to dimer
[3] = target: Ag43a α-domain (α^43a) from UPEC CFT073 (E. coli CFT073 (UPEC)); assay: as above
[4] = target: Ag43^UTI89 α-domain (α^43_UTI89), complete passenger domain with the autochaperone domain, from UPEC UTI89 (E. coli UTI89 (UPEC)); assay: as above

Ag43b α-domain (α^43b) from UPEC CFT073 (domain or fragment)
stoichiometry N [1]: 2

Ag43^EDL933 α-domain (α^43_EDL933), complete passenger domain with the autochaperone domain, from EHEC O157:H7 EDL933 (domain or fragment)
stoichiometry N [2]: 2

Ag43a α-domain (α^43a) from UPEC CFT073 (domain or fragment)
stoichiometry N [3]: 2

Ag43^UTI89 α-domain (α^43_UTI89), complete passenger domain with the autochaperone domain, from UPEC UTI89 (domain or fragment)
stoichiometry N [4]: 2
